Numbering of substitutions follows the chain as printed.

Broadly, the Kd is the constant that tells how readily two partners part at equilibrium. The low end stands for higher affinity, the high end for lower affinity. What is called IC50 is the concentration needed to halve the response being measured.

Sequences and labels used below:
T1: human MerTK endogenously expressed on cells (SK-MEL-5 cells; human macrophages) (human, UniProt Q12866 21-999)
T1 construct: also called MerTK on SK-MEL-5
T1 sequence: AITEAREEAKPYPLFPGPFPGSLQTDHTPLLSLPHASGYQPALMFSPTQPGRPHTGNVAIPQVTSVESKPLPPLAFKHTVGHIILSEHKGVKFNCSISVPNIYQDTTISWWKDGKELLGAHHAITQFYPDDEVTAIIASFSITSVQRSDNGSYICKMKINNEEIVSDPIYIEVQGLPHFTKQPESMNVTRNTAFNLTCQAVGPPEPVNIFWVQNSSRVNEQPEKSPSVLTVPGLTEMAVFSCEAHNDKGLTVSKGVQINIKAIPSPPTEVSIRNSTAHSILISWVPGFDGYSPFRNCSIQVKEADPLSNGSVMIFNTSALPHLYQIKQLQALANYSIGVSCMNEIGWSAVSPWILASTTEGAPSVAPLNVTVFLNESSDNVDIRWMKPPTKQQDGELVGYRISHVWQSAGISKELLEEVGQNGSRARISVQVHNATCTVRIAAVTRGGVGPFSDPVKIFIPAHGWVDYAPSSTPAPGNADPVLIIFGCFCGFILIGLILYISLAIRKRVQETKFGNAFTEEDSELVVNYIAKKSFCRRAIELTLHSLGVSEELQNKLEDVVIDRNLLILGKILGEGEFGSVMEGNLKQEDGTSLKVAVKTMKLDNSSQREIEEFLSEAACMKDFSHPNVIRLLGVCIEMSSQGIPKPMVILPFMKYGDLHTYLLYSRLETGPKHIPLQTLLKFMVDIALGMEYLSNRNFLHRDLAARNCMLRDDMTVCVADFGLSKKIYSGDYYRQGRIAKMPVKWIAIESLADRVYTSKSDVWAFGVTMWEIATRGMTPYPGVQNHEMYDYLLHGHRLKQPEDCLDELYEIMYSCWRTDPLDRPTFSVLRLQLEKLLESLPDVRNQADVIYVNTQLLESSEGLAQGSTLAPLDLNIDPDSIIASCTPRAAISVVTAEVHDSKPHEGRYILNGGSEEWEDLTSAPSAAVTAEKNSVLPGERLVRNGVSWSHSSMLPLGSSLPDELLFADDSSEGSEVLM

T2: Recombinant human MerTK human Fc Chimera protein (R&D systems, Cat #391-MR-100) (human, UniProt Q12866 26-499, limits assumed)
T2 construct: Bought; also called recombinant human MerTK protein; MerTK-Fc
T2 sequence: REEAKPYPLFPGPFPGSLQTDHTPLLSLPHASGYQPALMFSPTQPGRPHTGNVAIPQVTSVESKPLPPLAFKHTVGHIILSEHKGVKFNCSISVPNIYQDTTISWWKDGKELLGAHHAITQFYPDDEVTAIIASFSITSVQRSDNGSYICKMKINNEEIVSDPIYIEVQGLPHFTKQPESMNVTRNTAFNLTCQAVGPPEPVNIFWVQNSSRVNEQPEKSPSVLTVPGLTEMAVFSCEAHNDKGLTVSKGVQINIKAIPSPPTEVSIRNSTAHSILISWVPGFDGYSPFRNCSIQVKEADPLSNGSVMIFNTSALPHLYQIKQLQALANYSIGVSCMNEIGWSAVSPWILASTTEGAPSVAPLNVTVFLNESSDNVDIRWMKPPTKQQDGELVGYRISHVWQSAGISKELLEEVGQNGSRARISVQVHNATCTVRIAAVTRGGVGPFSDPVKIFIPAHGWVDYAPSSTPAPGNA

B1: MTK-10 (antibody, human IgG1, V domains shown)
VH: QVTLKESGPGILQPSQTLSLTCSFSGFSLTTSGMGVGWIRQPSGKGLEWLAHIWSDDDKRSNPALKSRLTISQDSSTNQVFLKIASVDTADSATYYCSHLTPVREFAYWGPGTLVTVSE
VL: DIQMTQTTSSLSASLGDRVTISCSASQGISNYLNWFQQKPDGTVKLLIYYTSRLHSGVPSRFSGSGSGTDFSLTISNLEPEDIATYYCQQYTKLPYTFGGGTKLEIK
B2: MTK-13 (antibody, human IgG1, V domains shown)
VH: DVQLQESGPGLVKPSQSLSLTCSVTGYSITSGYYWNWIRQFPGNKLEWMGNIDYDGSNKYNPSLKNRISITRDTSKNHFFLKLNSVTPEDTATYFCARDGGNYRSFAYWGQGTLVTVSA
VL: QIVLTQSPPIMSASPGEKVTITCSASSSVSYMYWFQQKPGTSPKLWIYSTFNLASGVPARFSGSGSGTSYSLTISRMEAEDVATYYCQQRSSYPFTFGSGTKLEIK
B3: MTK-04 (antibody, human IgG1, V domains shown)
VH: QIQLVQSGPELKKPGETVKISCKASGYTFTNYGMNWVKQAPGKGLKCMGWINTYTGEPTYADDFKGRFAFSLETSASTAYLQINNLKNEDMATYFCAKYDNYAWFAYWGQGTLVTVSA
VL: QIVLSQSPAFLSASPGEKVTMTCRASSSVSYMHWYLQKPGSSPKPWIYATSNLASGVPVRFSGSGSGTSYSLTISRVEAEDAATYYCQQWSSNPRTFGGGTKLEIR
B4: MTK-06 (antibody, human IgG1, V domains shown)
VH: QIQLVQSGPELKKPGETVKISCKASGYTFTNYGMNWVKQAPGKGLKWMGWINTNTGEPTYAEEFKGRFAFSLETSASTAYLQINNLKNEDTATYFCARYYNYWYFDVWGAGTTVTVSS
VL: B3 VL with F10I, L36Q, V59A, N93K, R95P, R106K
B5: MTK-08 (antibody, human IgG1, V domains shown)
VH: B4 VH with N54Y, E62D, E63D, Y99E, Y100V, N101R
VL: B3 VL with F10I, S26T, Y35F, L36Q, V59A, T84A, Q89H, S92G, R106K
B6: MTK-14 (antibody, human IgG1, V domains shown)
VH: B3 VH with G44D, K46Q, C47W, K65T, M91T, Y99G, D100G, N101H
VL: B3 VL with F10I, A25S, L36Q, V59G, S91G, R106K
B7: MTK-32 (antibody, human IgG1, V domains shown)
VH: QIQLVQSGPELKKPGETVKISCKASGYTFTSYGMSWVHQAPGKGLKWLGWINTYSGVPTYADDFRGRFAFSLDTSVSTASLEINNLQNEDTATYFCAREDNWAWFAYWGQGTLVTVST
VL: B3 VL with F10I, S26T, S30G, L36Q, Q37R, V59A, R106K
B8: MTK-28 (antibody, human IgG1, V domains shown)
VH: QIQLVQSGPELKKPGETVKISCKASGYTFTTYGMSWVKQAPGKGLKWMGWINTYSGVPTYADDFKGRFAFSLETSASTAYLQINTLKNEDTTTYFCARFLRYYYFDYWGQGTTLTVSS
VL: QIVLSQSPVILSASPGEKVTMTCRASSSVTYMHWYQQQPGSSPKPWIYATSNLASGVPARFSGSGSGTSYSLTISRVETEDAATYYCHQWSGNPTFGGGTKLEIN
B9: MTK-02 (antibody, human IgG1, V domains shown)
VH: QIQLVQSGPELKQPGETVKISCKASGYTFTDYGVNWVKQAPGKGLKWMGWINTYSGEPTYAGDFKGRFAFSLESSASTAFLQINNLKNEDMATYFCARRVRYWYFDVWGAGTSVTVSS
VL: QIVLSQSPAILSASPGERVTMTCRANSSVSYMHWYQQKPGSSPKPWIYATSNLASGVPARFSASGSGTSYSLTVSRVEAEDAATYYCQQWGSNPFTFGSGTKLEIK
B10: MTK-24 (antibody, human IgG1, V domains shown)
VH: QVQLQQPGAELVKPGASVKLSCKASGYTFTSYWMHWVKQRPGQGLEWIGMIHPNINTNYNEKFKSKATLTVDISSSTAYMQLSSLTSEDSAVYYCAKRSPYSNYDWYFDVWGTGTTVTVSS
VL: DIQMTQSPASLSVSVGETVTITCRASENIYSNLAWYQQKQGKSPQLLVYAATNLADGVPSRFSGSGSGTQYSLKINSLQSEDFGSYYCQHFWGTPLTFGAGTKLELK
B11: MTK-21 (antibody, human IgG1, V domains shown)
VH: QIQLVQSGPELKKPGETVKISCKASGYTFTNFGMTWVRQAPGMDLKWMGWINTYTGEPKYADDFKGRFALSLETSASTAYLQITNFKNEDTATYFCARGGGRLGLRPLDYWGQGTTLTVSS
VL: DIQMTQTTSSLSASLGDRVTISCRASQDINNYLNWYQQKPDGTVKLLIYYTSSLHSGVPSRFSGSGSGTDYSLTITNLEQEDIATYFCQQGNTLPWTFGGGTRLEIK
B12: MTK-31 (antibody, human IgG1, V domains shown)
VH: QIQLVQSGPELKKSGETVKISCKASGYTFTSYGMSWVKQAPGKGLKWMGWINTYSGVPTYADDFKGRFAFSLETSASTAYLQINNLKNEDTATYFCASLSYDGSLYHAMDYWGQGTSVTVSS
VL: DVSMTQTPLSLPVSLGDQASISSRSSQTIVHSNGNTYLEWYLQKPGQSPKLLIYKVSNRFSGVPDRFSGSGSGTDFTLKISRVEAEDLGVYYCFQGSHVPWTFGGGTKLEIK

One experiment concerns the target T1, human MerTK endogenously expressed on …. The experiment can be described thus: flow cytometry on SK-MEL-5 cells, Prism fit. How it is done: To determine whether recombinant anti-human MerTK antibodies of the present disclosure bind to human MerTK endogenously expressed on SK-MEL-5 cells and to CHO cells overexpressing mouse MerTK (CHO-muMerTK OE cells), the following experiments were performed. SK-MEL-5 cells and CHO-muMerTK OE cells were plated at 40,000 cells/well. Anti-MerTK antibodies were titrated to a final concentration range of between 66.6 nM to 4 pM and then added to the cells. After 30 min on ice, cells were washed and then stained with APC-conjugated mouse anti-human Kappa antibody (Southern Biotech Cat #9230-11, Birmingham, Ala.) and a viability die (Life Technologies) in the presence of Fc block solution on ice for 30 minutes, and then washed twice with cold FACS buffer (2% FBS in PBS). Cells were fixed with 4% paraformaldehyde in PBS. Stained cells were acquired on a BD FACS Canto II cytometer and the mean fluorescence intensity (MFI) was calculated with FlowJo software and K value was calculated with Prism software. […] A lower Kd value reflects higher binding of antibody to cells.
On the technique in general: Flow cytometry measures light scatter and fluorescence of single cells or particles in a stream.
As to B1, the Kd was determined as 0.076 nM.

The molecule B2 showed a Kd of 0.68 nM.

B3 came in with a Kd of 0.037 nM.

B4: the Kd was 0.005 nM.

As for B5, the Kd stood at 0.079 nM.

Molecule B6 came in with a Kd of 0.021 nM.

The molecule B7 returned a Kd of 0.4 nM.

The molecule B8 returned a Kd of 0.52 nM.

On to B9, for which the dissociation constant Kd came out at 0.024 nM.

As for B10, the Kd came out at 0.59 nM.

For the molecule B11, the Kd was 23.4 nM.

Another experiment has as its target T2, Recombinant human MerTK human Fc …. The experiment can be described thus: competition ELISA, His-ProS on captured MerTK-Fc. The method, then: (§1) Rabbit anti-human IgG polyclonal antibody (Jackson ImmunoResearch, Cat #309-005-008) was captured to a high-protein binding plate at 2 μg/ml 4° C. overnight. After washing with 0.05% Tween20 in PBS three times, 5% BSA in PBS was added for 1 hour. Recombinant human MerTK human Fc Chimera protein (R&D systems, Cat #391-MR-100) was added at 2 μg/ml for 1 hour and the plates were then washed. Anti-MerTK antibodies were titrated to final concentration range of between 66.6 nM to 4 pM and then 40 μl of serially diluted antibody and 40 μl of His tag-conjugated recombinant Gas6 protein (R&D systems, Cat #885-GSB-050) at 3 μg/ml or His tag-conjugated recombinant ProS protein (R&D systems, Cat #9489-PS-100) at 20 μg/ml. After a further incubation for 1 hour, plates were washed and incubated for 1 hour with HRP-conjugated anti-6×His tag antibody (Abcam, Cat #ab1187). Plates were then washed and an HRP substrate (TMB) was used to develop the plates. After sufficient color change was observed, the reaction was stopped by adding 50 μl 2N H₂SO₄ and the OD was measured using a spectrophotometer (BioTek).
(§2) From these experiments, IC50 values [nM] were determined using OD450 values obtained from the dose-response curves analyzed with Prism software. Table 14 and Table 15 show IC50 values determined for anti-MerTK antibody blocking of Gas6 ligand binding and ProS ligand binding to MerTK. […] Dashes indicate lack of significant blocking; “n.a.” indicates data not available.
Consider B1, for which the IC50 came to 3.8 nM.

B2: the IC50 is 3.76 nM.

B3: the IC50 amounted to 12.8 nM.

Take B4: the IC50 was found to be 2.17 nM.

As to B5, the IC50 stood at 3.8 nM.

For B6, the IC50 was found to be 7.61 nM.

For B7, the IC50 worked out at 2.78 nM.

For B8, the IC50 was determined as 2.78 nM.

Take B9: the IC50 turned out to be 3.94 nM.

As for B10, the IC50 turned out to be 0.579 nM.

Regarding B11, the IC50 is 13.5 nM.

A further experiment has the same target. The experiment can be described thus: competition ELISA, His-Gas6 on captured MerTK-Fc. The method, then:
as §1, §2
(In an ELISA, binding on a coated surface is turned into a signal by an enzyme label.)
Turning to B1, the IC50 came out at 32.4 nM.

On to B2, for which the 50% inhibitory concentration (IC50) was 18.9 nM.

Take B10: the IC50 worked out at 0.74 nM.

As for B11, the IC50 stood at 5.98 nM.

Take B12: the IC50 is 1.29 nM.
